Data from the supplement of paper PMC9112550, “Optimization of the antimicrobial peptide Bac7 by deep mutational scanning” (BMC Biology, 2022).

System: Escherichia coli TOP10
Assay: shrunken log2 fold change of peptide-encoding DNA abundance (4.5 h post-induction vs induction); higher = less antimicrobial activity (less host growth inhibition)
Conditions: time post-induction: 4.5 h; library: site-saturation at positions 5, 18, 19, 20
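Note: peptides expressed intracellularly from a pBAD plasmid library in pooled LB shake-flask culture, induced with 0.3% L-arabinose, DNA abundance read by NGS, three biological replicates, DESeq2 with apeglm shrinkage.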

RRIRTRPPRLPRPRPRPPNKPRP
shrunken log2 fold change: -0.275

RRIRTRPPRLPRPRPRPLEEPRP
shrunken log2 fold change: -0.0207

RRIRTRPPRLPRPRPRPGENPRP
shrunken log2 fold change: 0.182

RRIRNRPPRLPRPRPRPSVGPRP
shrunken log2 fold change: -0.0175

RRIRFRPPRLPRPRPRPVTTPRP
shrunken log2 fold change: 0.173

RRIRFRPPRLPRPRPRPLFVPRP
shrunken log2 fold change: -0.424

RRIRYRPPRLPRPRPRPSRKPRP
shrunken log2 fold change: 0.0647

RRIRARPPRLPRPRPRPHWLPRP
shrunken log2 fold change: 0.339

RRIRMRPPRLPRPRPRPNSPPRP
shrunken log2 fold change: 0.147

RRIRARPPRLPRPRPRPNIGPRP
shrunken log2 fold change: -0.0734

RRIRPRPPRLPRPRPRPQTTPRP
shrunken log2 fold change: -0.161

RRIRTRPPRLPRPRPRPKVSPRP
shrunken log2 fold change: -0.0491

RRIRGRPPRLPRPRPRPFYQPRP
shrunken log2 fold change: 0.0158

RRIRYRPPRLPRPRPRPYVVPRP
shrunken log2 fold change: -0.24

RRIRYRPPRLPRPRPRPKYAPRP
shrunken log2 fold change: -0.532

RRIRFRPPRLPRPRPRPHETPRP
shrunken log2 fold change: -0.347

RRIRPRPPRLPRPRPRPHIYPRP
shrunken log2 fold change: -0.576

RRIRERPPRLPRPRPRPAFFPRP
shrunken log2 fold change: 0.00883

RRIRNRPPRLPRPRPRPWYNPRP
shrunken log2 fold change: -0.00192

RRIRSRPPRLPRPRPRPYHLPRP
shrunken log2 fold change: -0.415

RRIRWRPPRLPRPRPRPIPNPRP
shrunken log2 fold change: -0.262

RRIRVRPPRLPRPRPRPDGMPRP
shrunken log2 fold change: -0.454

RRIRTRPPRLPRPRPRPLKQPRP
shrunken log2 fold change: 0.0283

RRIRCRPPRLPRPRPRPKHVPRP
shrunken log2 fold change: -0.155

RRIRVRPPRLPRPRPRPAHNPRP
shrunken log2 fold change: -0.296

RRIRWRPPRLPRPRPRPWDYPRP
shrunken log2 fold change: -0.0902

RRIRKRPPRLPRPRPRPIHDPRP
shrunken log2 fold change: 0.00115

RRIRKRPPRLPRPRPRPAVPPRP
shrunken log2 fold change: 0.275

RRIRTRPPRLPRPRPRPPNNPRP
shrunken log2 fold change: -0.377

RRIRLRPPRLPRPRPRPLHDPRP
shrunken log2 fold change: -0.149

RRIRDRPPRLPRPRPRPYAVPRP
shrunken log2 fold change: -0.165

RRIRIRPPRLPRPRPRPCDEPRP
shrunken log2 fold change: 0.0357

RRIRLRPPRLPRPRPRPIADPRP
shrunken log2 fold change: -0.0951

RRIRFRPPRLPRPRPRPCESPRP
shrunken log2 fold change: 0.00749

RRIRSRPPRLPRPRPRPVISPRP
shrunken log2 fold change: 0.141

RRIRSRPPRLPRPRPRPRGMPRP
shrunken log2 fold change: 0.164

RRIRDRPPRLPRPRPRPATRPRP
shrunken log2 fold change: 0.701

RRIRLRPPRLPRPRPRPQETPRP
shrunken log2 fold change: 0.0529

RRIRSRPPRLPRPRPRPFHPPRP
shrunken log2 fold change: 0.0938

RRIRCRPPRLPRPRPRPRVPPRP
shrunken log2 fold change: -0.0115

RRIRHRPPRLPRPRPRPAFNPRP
shrunken log2 fold change: -0.313

RRIRPRPPRLPRPRPRPGVCPRP
shrunken log2 fold change: 0.428

RRIRCRPPRLPRPRPRPYWEPRP
shrunken log2 fold change: -0.388

RRIRWRPPRLPRPRPRPANDPRP
shrunken log2 fold change: -0.0438

RRIRYRPPRLPRPRPRPKRAPRP
shrunken log2 fold change: 0.28

RRIRHRPPRLPRPRPRPVTVPRP
shrunken log2 fold change: -0.179

RRIRDRPPRLPRPRPRPCIWPRP
shrunken log2 fold change: 0.033

RRIRIRPPRLPRPRPRPHGQPRP
shrunken log2 fold change: -0.0468

RRIRDRPPRLPRPRPRPYSTPRP
shrunken log2 fold change: -0.0663

RRIRLRPPRLPRPRPRPKNRPRP
shrunken log2 fold change: 0.177

RRIRGRPPRLPRPRPRPFYWPRP
shrunken log2 fold change: 0.161

RRIRDRPPRLPRPRPRPSICPRP
shrunken log2 fold change: -0.0317

RRIRLRPPRLPRPRPRPSQHPRP
shrunken log2 fold change: -0.169

RRIRIRPPRLPRPRPRPIGWPRP
shrunken log2 fold change: 0.0224

RRIRARPPRLPRPRPRPQECPRP
shrunken log2 fold change: -0.0292

RRIRLRPPRLPRPRPRPRELPRP
shrunken log2 fold change: 0.765

RRIRWRPPRLPRPRPRPAQVPRP
shrunken log2 fold change: 0.565

RRIRMRPPRLPRPRPRPELVPRP
shrunken log2 fold change: 0.0445

RRIRRRPPRLPRPRPRPNDHPRP
shrunken log2 fold change: 0.0277

RRIRWRPPRLPRPRPRPMPLPRP
shrunken log2 fold change: -0.0398

RRIRCRPPRLPRPRPRPCHKPRP
shrunken log2 fold change: -0.0857

RRIRFRPPRLPRPRPRPSWDPRP
shrunken log2 fold change: -0.152

RRIRARPPRLPRPRPRPVYKPRP
shrunken log2 fold change: -0.35

RRIRTRPPRLPRPRPRPVVVPRP
shrunken log2 fold change: 0.0543

RRIRPRPPRLPRPRPRPTGNPRP
shrunken log2 fold change: 0.141

RRIRFRPPRLPRPRPRPIYPPRP
shrunken log2 fold change: -0.574

RRIRARPPRLPRPRPRPVGLPRP
shrunken log2 fold change: 0.321

RRIRVRPPRLPRPRPRPLPKPRP
shrunken log2 fold change: 0.361

RRIRSRPPRLPRPRPRPELSPRP
shrunken log2 fold change: 0.963

RRIRIRPPRLPRPRPRPSGLPRP
shrunken log2 fold change: 0.0161

RRIRMRPPRLPRPRPRPENPPRP
shrunken log2 fold change: 2.79

RRIRSRPPRLPRPRPRPCPSPRP
shrunken log2 fold change: 0.0411

RRIRVRPPRLPRPRPRPLFIPRP
shrunken log2 fold change: 0.101

RRIRLRPPRLPRPRPRPVLTPRP
shrunken log2 fold change: -0.198

RRIRDRPPRLPRPRPRPCSMPRP
shrunken log2 fold change: -0.0575

RRIRFRPPRLPRPRPRPIYCPRP
shrunken log2 fold change: -0.0425

RRIRSRPPRLPRPRPRPHQSPRP
shrunken log2 fold change: -0.198

RRIRRRPPRLPRPRPRPLWGPRP
shrunken log2 fold change: 0.0229

RRIRERPPRLPRPRPRPIHTPRP
shrunken log2 fold change: 0.0013

RRIRVRPPRLPRPRPRPDHEPRP
shrunken log2 fold change: -0.0524

RRIRSRPPRLPRPRPRPLCYPRP
shrunken log2 fold change: -0.535

RRIRTRPPRLPRPRPRPKKYPRP
shrunken log2 fold change: -0.627

RRIRCRPPRLPRPRPRPQGMPRP
shrunken log2 fold change: 0.00583

RRIRLRPPRLPRPRPRPHLLPRP
shrunken log2 fold change: -0.0156

RRIRYRPPRLPRPRPRPACDPRP
shrunken log2 fold change: -0.00452

RRIRWRPPRLPRPRPRPVMKPRP
shrunken log2 fold change: 0.12

RRIRVRPPRLPRPRPRPRMKPRP
shrunken log2 fold change: -0.167

RRIRPRPPRLPRPRPRPVNCPRP
shrunken log2 fold change: -0.118

RRIRPRPPRLPRPRPRPSMQPRP
shrunken log2 fold change: -0.29

RRIRNRPPRLPRPRPRPQNQPRP
shrunken log2 fold change: -0.212

RRIRRRPPRLPRPRPRPSTTPRP
shrunken log2 fold change: 0.00373

RRIRRRPPRLPRPRPRPVGAPRP
shrunken log2 fold change: 0.592

RRIRVRPPRLPRPRPRPEYDPRP
shrunken log2 fold change: -0.0844

RRIRFRPPRLPRPRPRPYWYPRP
shrunken log2 fold change: -0.675

RRIRHRPPRLPRPRPRPFWNPRP
shrunken log2 fold change: 0.034

RRIRNRPPRLPRPRPRPRAKPRP
shrunken log2 fold change: 0.0711

RRIRKRPPRLPRPRPRPQDGPRP
shrunken log2 fold change: 0.013

RRIRMRPPRLPRPRPRPWKFPRP
shrunken log2 fold change: 0.0673

RRIRVRPPRLPRPRPRPYLYPRP
shrunken log2 fold change: -1.05

RRIRGRPPRLPRPRPRPCVKPRP
shrunken log2 fold change: 0.063

RRIRNRPPRLPRPRPRPFTYPRP
shrunken log2 fold change: -0.0143

RRIRWRPPRLPRPRPRPQKHPRP
shrunken log2 fold change: -0.15

RRIRPRPPRLPRPRPRPGFLPRP
shrunken log2 fold change: 0.167

RRIRYRPPRLPRPRPRPVRRPRP
shrunken log2 fold change: 0.0834

RRIRERPPRLPRPRPRPDGPPRP
shrunken log2 fold change: 0.115

RRIRFRPPRLPRPRPRPITCPRP
shrunken log2 fold change: -1.15

RRIRVRPPRLPRPRPRPDHRPRP
shrunken log2 fold change: -0.272

RRIRWRPPRLPRPRPRPCRVPRP
shrunken log2 fold change: 0.103

RRIRVRPPRLPRPRPRPWCLPRP
shrunken log2 fold change: -0.198

RRIRSRPPRLPRPRPRPHACPRP
shrunken log2 fold change: -0.0756

RRIRFRPPRLPRPRPRPAKRPRP
shrunken log2 fold change: 0.21

RRIRVRPPRLPRPRPRPCMSPRP
shrunken log2 fold change: -0.0664

RRIRGRPPRLPRPRPRPKPDPRP
shrunken log2 fold change: 1.11

RRIRPRPPRLPRPRPRPYTEPRP
shrunken log2 fold change: -0.349

RRIRPRPPRLPRPRPRPYFWPRP
shrunken log2 fold change: -0.137

RRIRARPPRLPRPRPRPYVTPRP
shrunken log2 fold change: -0.658

RRIRHRPPRLPRPRPRPVYKPRP
shrunken log2 fold change: -0.665

RRIRMRPPRLPRPRPRPIPCPRP
shrunken log2 fold change: 0.02

RRIRSRPPRLPRPRPRPHHNPRP
shrunken log2 fold change: -0.708

RRIRLRPPRLPRPRPRPCFDPRP
shrunken log2 fold change: -0.293

RRIRIRPPRLPRPRPRPKLCPRP
shrunken log2 fold change: 0.0563

RRIRHRPPRLPRPRPRPFFDPRP
shrunken log2 fold change: -0.642

RRIRSRPPRLPRPRPRPYTTPRP
shrunken log2 fold change: -0.0205

RRIRTRPPRLPRPRPRPWFKPRP
shrunken log2 fold change: -0.214

RRIRIRPPRLPRPRPRPKAIPRP
shrunken log2 fold change: -0.157
